Experiment: soluble on expression in E. coli; label from the status in PepcDB or PDB records

Sequence	soluble on expression in E. coli
MITSTTTDYKNFFKHSAHPANAEQYFRELLDKRERRYEDLCRNIISDMNQYGLSVVDDFLGMETGLKILNEVRSMYNAGAFQDGQVVTNQTPDAPAVRGDKIRGDKIKWVGGNEPGCSNVWYLTNQIDSVVYRVNTMKDNGILGNYHIRERTRAMVACYPGSGTHYVMHVDNPQKDGRVITAIYYLNINWDARESGGILRIRPTPGTTVADIEPKFDRLIFFWSDIRNPHEVQPAHRTRYAITVWYFDAKEREEALIRAKLENSKTNNLAAQAQAQQAEPDSTTTPPAAPASSASSLPVSMSTGTGALNANVSSNSCATSSEICT	not soluble
MITVSIAGGSQPEILQLVKKALKEAEQPLQFIVFDTNENLDTENLWKYVHCSDEAAVAQEAVSLVATGQAQILLKGIIQTHTLLKEMLKSEHQLKNKPILSHVAMVELPAGKTFLLTDCAMNIAPTQATLIEIVENAKEVAQKLGLHHPKIALLSAAENFNPKMPSSVLAKEVTAHFNDQQEATVFGPLSLDLATSEEAVAHKRYSGPIMGDADILVVPTIDVGNCLYKSLTLFGHAKVGGTIVGTKVPVVLTSRSDSTESKFHSLRFAMRQVHHHHHH	soluble
MIVDTSVWIAYLSTSESLASRWLADRIAADSTVIVPEVVMMELLIGKTDEDTAALRRRLLQRFAIEPLAPVRDAEDAAAIHRRCRRGGDTVRSLIDCQVAAMALRIGVAVAHRDRDYEAIRTHCGLRTEPLF	not soluble
MIVGEDQLWGRRALEFVDSVERLEAPALISRFESLIASCGFTAYIMAGLPSRNAGLPELTLANGWPRDWFDLYVSENFSAVDPVPRHGATTVHPFVWSDAPYDRDRDPAAHRVMTRAAEFGLVEGYCIPLHYDDGSAAISMAGKDPDLSPAARGAMQLVSIYAHSRLRALSRPKPIRRNRLTPRECEILQWAAQGKTAWEISVILCITERTVKFHLIEAARKLDAANRTAAVAKALTLGLIRL	not soluble
MIVGRDGVGVVEHAEQGPRIAVAVVTMGNRPAEVDALLASVAKQDLPPARIVIVGNGCPLPEFARRLDLPGEVTGIEVDENLGCPGGRNVALAKLREFGDVDVVVELDDDGLLVDADVLRRVRDLYAADPRLGIVGFRIADENGETQRRHVPRVGKSDPLRGGPVTGFLGGGHALSMAMLARTGDWPAEFFFAHEETDLAWRATDAGWTILYAPELLLQHPKTSPARHAIYHRVTARNRVWLARRRLPLPLIPVHLGIWIAVTLVRTRSAGGLRAWFGGFMEGVRTSGGERRPMRWRTVWRLTRLGRPPVILEHHHHHH	not soluble
MIVSFKCVHTRYLFLQGKTRLWPSIKSVAERKLAMLDAATSILDLRSPPGNRLEALDGSRSGQYSVRINAPFRICFVWSINGPEDVEIVDYH	not soluble
MIWIVGSGTCRGQTTERAKEIIERAEVIYGSRRALELAGVVDDSRARILRSFKGDEIRRIMEEGREREVAVISTGDPMVAGLGRVLREIAEDVEIKIEPAISSVQVALARLKVDLSEVAVVDCHAKDFDAELTELLKYRHLLILADSHFPLERLGKRRVVLLENLCMEGERIREGNADSIELESDYTIIFVEREVME	soluble
MIYRFTIISDEVDDFVREIQIDPEATFLDFHEAILKSVGYTNDQMTSFFICDDDWEKEKEVTLEEMDDNPEMDSWIMKETTISELVEDEKQKLLYVFDYMTERCFFIELSEIITGKDMNGAKCTKKSGDAPPQTVDFEEMAAASGSLDLDENFYGDQDFDMEDFDQEGFDIGGNAGGSYEEEKFLEHHHHHH	soluble
MKAMPIDDPIDGYVAELSRALHGPRRAKRDLIAEVRDGLIDAAEAYQAAGLDRPEAERRAVAEFGTVGEIAPGLQEELAAATGQRLGALLFLSAPRSPGT	not soluble
MKANRSIACLLLAALPTLASAHVAEKVETLHDQALAEIPGHRGLMLTVSFKPGQVSAPHVHPGSVFVYVLEGTVQTQLEGGSVETYTVGQSWYEPANVPHLLARNPDPMKPAKLLVWELLKEGDPILKPLERGAH	not soluble
MKASYLETLDRIKDEHAEMSKHVNQQRSDIEKVALEKENMNRSYMTYAEVSNTLRSDLRKAEEINKRLQEFIMQSLAPQLSQDNQANCLAALEAFKTASPRENGNGAPALPPGFPPGAAGMLGMMPNMPFGMSPAMSQLFNQFASPHVNGGDGAGGSSGGASEAKKAKLEDPDDGELEIDVTNDDHPSTASNGGAANKNGRDSTNSVASSGASTPSIASNSRARQQQQPLAGLQGLEQMNFLAGFNPNLLRQASAAGGFNFLNDPHAQARLAAAIGQIGSRPAYSFKIVDGGVPTPTSFPPDAQKGPGIPTGLKKKMELNHGEVVCAATISRDNSRVYTGGKGCVKIWDVKESDISGATVVNRPPIASLDCLKENYIRSCKLFEDGNTLLIGGEASTVALWDLTTETKTLDLETDSQACYALAMSPDEKLLFACLADGNILIYDIHNKVKVGTLPGHQDGASCLDLSKDGTKLWSGGLDNSVRCWDLAQRKEVAKHDFASQVFSLGCCPNDEWVAVGMENNYVEVLSTTGKEKYQLTQHESCVLSLKFAHSGKFFISTGKDNALNAWRTPYGASLFQLKENSSVLSCDISFDDSLIVTGSGEKKATLYAVEY	not soluble
MKATLHPYQEYSKNFILDHPYCALMLDMGLGKTLSSLTAIDELLHTFEIIENVLVIAPLSVAEKTWTDEIEKWDHLQHLTFSKVLGNPKQREEALFKKADVYLINRENVEWLVNYYQRNWPFKTVIIDELSSFKSSSAKRFKALRKVRPKMERVIGLTGTPSPNSLMDLWAQMYLLDQGERLGKTITQYRNKYFVPAQKNGHIVYSWQLIPGAEEAIYNKISDICVSMKAKDYLRLPPRTENIIELDLNPTSWKQYKELEREYVLELEGTDVVASNAATLSNKLLQLSNGAVYDENGDGREIHQEKLNALERVIEDAQGQSVLVFYQYQHDLERIQARFKQAKALNVSDGDIEKWNEGKISLLLAHPQSAGHGLNLQKGGHIIVWFGLTWSLEFYQQANARLDRQGQTQPVIIHHLVTKGTIDEQVIKALQAKEQGQSALMAAVKAKIEEYRGDKLG	not soluble
MKATTVKENEVKDDRKLSLNEMLRKRCLQVKNTKMKNSSMPKFQYFVRLNGKTRTLNVNASDTVEQGKMQLCHNARSTRMSYGGKPLSDQITFGEYNISNNSTMDLHFRI	not soluble
MKAVIAKNEEQLKDAFYVREEVFVKEQNVPAEEEIDELENESEHIVVYDGEKPVGAGRWRMKDGYGKLERICVLKSHRSAGVGGIIMKALEKAAADGGASGFILNAQTQAVPFYKKHGYRVLSEKEFLDAGIPHLQMMKD	soluble
MKAVQGDPNWNLVTDTYIEPNNFAELFSLLVPCHPKGEGKERTILVWKEKEFYKEENLAAFIVYGMNKAKKLPQFHKDEIPTLVRILRLCQEIGWYEEANDFMIAQGLAEFVHTSLEYETWDLLTQSVALNYLIIKYRIGELTDRDIEIWDRVKFNEKCITDCKHLLSHKEVLEFTFFYMCKRAKSLSKEQLNSDMMSLAMYCNTFVYDLYTHDLLRKYRKCTDFLSYYGPSQAVLACQRAVLSQISDRLDPLKTTHVDDYLYVMKEMMEHMTIGVMDRYGHFIGKLLSYVPFFEMIQVPQHAYYCEELLYICKGIEYKEETLRNYIFIQLHDCLPSFFRLFLKNKRYATIHDILFYWCDDEQRMSLEKKYNLSFIYEKYACG	not soluble
MKAVSRVHITPHMHWDREWYFTTEESRILLVNNMEEILCRLEQDNEYKYYVLDGQTAILEDYFAVKPENKDRVKKQVEAGKLIIGPWYTQTDTTIVSAESIVRNLMYGMRDCLAFGEPMKIGYLPDSFGMSGQLPHIYNGFGITRTMFWRGCSERHGTDKTEFLWQSSDGSEVTAQVLPLGYAIGKYLPADENGLRKRLDSYFDVLEKASVTKEILLPNGHDQMPLQQNIFEVMDKLREIYPQRKFVMSRFEEVFEKIEAQRDNLATLKGEFIDGKYMRVHRTIGSTRMDIKIAHARIENKIVNLLEPLATLAWTLGFEYHHGLLEKMWKEILKNHAHDSIGCCSDKVHREIVARFELAEDMADNLIRFYMRKIADNMPQSDADKLVLFNLMPWPREEVINTTVRLRASQFNLRDDRGQPVPYFIRHAREIDPGLIDRQIVHYGNYDPFMEFDIQINQIVPSMGYRTLYIEANQPGNVIAAKSDAEGILENAFWQIALNEDGSLQLVDKDSGVRYDRVLQIEESSDDGDEYDYSPAKEEWVITAANAKPQCDIIHEAWQSRAVIRYDMAVPLNLSERSARQSTGRVGVVLVVTLSHNSRRIDVDINLDNQADDHRLRVLVPTPFNTDSVLADTQFGSLTRPVNDSAMNNWQQEGWKEAPVPVWNMLNYVALQEGRNGMAVFSEGLREFEVIGEEKKTFAITLLRGVGLLGKEDLLLRPGRPSGIKMPVPDSQLRGLLSCRLSLLSYTGTPTAAGVAQQARAWLTPVQCYNKIPWDVMKLNKAGFNVPESYSLLKMPPVGCLISALKKAEDRQEVILRLFNPAESATCDATVAFSREVISCSETMMDEHITTEENQGSNLSGPFLPGQSRTFSYRLA	not soluble
MKCSKCGREAVYFAKYEGKYYCHKHFNEMVESKVKRTIRKYRMIKKGERIGVAVSGGKDSVVLLHLLAKLRKKFPFEIVAITIDEGIKGYRDKSIKVAKKNAELLGVEHHIYRFKDYIGFTLDETVEIMGARGERLGACSYCGVWRRWLLNKAAEELKVDKLALGLNLDDEVQMFLMNLMRGDVARLGRTGPYYEVIHEGLVPRIKPLREVPEKEIVLYAVLNNIEVDLSECPYAVEAFRAEIRDWLNEMEEKHPGTKYQLLRSYDKIFPLLAKTYAKKVKLNRCKICGQPTSGEICKACQFRLQVKERAEKLKFSLSQR	soluble
MKDDPKVHLEAKELWDQFHKRGTEMVITKSGRRMFPPFKVRCSGLDKKAKYILLMDIIAADDCRYKFHNSRWMVAGKADPEMPKRMYIHPDSPATGEQWMSKVVTFHKLKLTNNISDKHGFTILNSMHKYQPRFHIVRANDILKLPYSTFRTYLFPETEFIAVTAYQNDKITQLKIDNNPFAKGFRDTGNGRR	soluble
MKDDRQKASVLAVRMIPNVDLAMCKEFSMPEGHRSIGLITSDCDDVTYTALDDATKKADIKVVYAKSFYGGAANANTKLAGEVIGIISGPNPAEVKSGLSAVVDFVENEAAFISANEDDSIAYYAHCISRTGSYLSEVAGIPEGESIAYLIAPPLEAMYALDVALKSANVELVAFYGPPSETNFGGGLLTGSQSACKAACDAFAEAVKAVAANPLGY	not soluble
MKDVSTDAPVDSARIINGKFAFADTTKIENPVIKILSIHASKMGLEYRLPVVIENGTIKASIADVVCTEGTMLNERMQDFLLAIDAYSAACTDKPVEQIKSGFSELLKRYIEMNNDNVIGTYIQTAYQSSL	not soluble
MKEACSSSSHVPVSDSKYILKSELLSLLKTYNCYHEGRSFQLRHREEEGTLIIEGLLNIAWGLRRPIRLQMQDDRERVHLPSATWVPERLSYLQKEASPQDSKVPTEEPGTQPANKAEVSGDSSGALEGEEEEVPQLMRTKSDASCIIQRRSKSRAPSEAQKIRRHRFSINGHFYNHKVKSPSALSWALKLRVQELFPSTEERAPNIQHSSHSSIR	soluble
MKEAYAQELIDYYNQSTNDVLKRTASISENEKPRVLFLVYDQRKNSYWTPGGEFYQNNLITMAGGKTVSSDLPTGKAQINVEQAASWNPDVIITSAHTMEYPSTKVKEDVLTDEGWKEINAVKSGNVYAMPFDGESWDTLGSKYVLGLYWTAKTLHPDMYLEHHHHHH	soluble
MKEIWLLAESESWDEAKEMLKDAIEIGFDGALVRRDFLERAEKLGRMKIVPIEDAVVKISSAEDQERALQREVVVLKFEDWKVIPLENIVAMKKSGKVIAAVDTIEDAKLALTTLERGADGIAVSGDRETLRKFYEVVKEEGERVELVRARVKEIRPLGVGERVCIDTVTLMTPGEGMLVGNQASFMFLVASESEESEYVASRPFRVNAGSVNAYLKVGDKTRYLAELKAGDEVEVVKFDGAVRKSYVGRVKIERRPLILIRAEVDGVEGSVILQNAETIKLVAPDGKHVSVAELKPGDEILVWLGKKARHFGVEVDEFIVERLEHHHHHH	soluble
